Reference: the Immune Epitope Database (IEDB)

Columns and labels:
HLA-A*02:06 = assay: IEDB peptide-MHC binding, purified MHC/competitive/radioactivity; filed as Kd, often an IC50 or EC50 that approximates it; ≥ and ≤ were set here for values at or beyond the usual limits of such assays
HLA-A*02:03 = assay: as above
HLA-A*02:02 = assay: as above
HLA-A*30:02 = assay: as above
HLA-A*26:01 = assay: as above
HLA-A*03:01 [1] = assay: IEDB peptide-MHC binding, purified MHC/direct/fluorescence; filed as Kd, often an IC50 or EC50 that approximates it; ≥ and ≤ were set here for values at or beyond the usual limits of such assays
HLA-B*15:01 = assay: as above
HLA-B*58:01 = assay: as above
HLA-A*02:01 = assay: as above
HLA-A*01:01 = assay: as above; conditions: source organism: Homo sapiens
HLA-A*68:01 = assay: IEDB peptide-MHC binding, purified MHC/competitive/radioactivity; filed as Kd, often an IC50 or EC50 that approximates it; ≥ and ≤ were set here for values at or beyond the usual limits of such assays
HLA-A*03:01 [2] = assay: as above; conditions: source organism: Vaccinia virus WR
HLA-A*31:01 = assay: as above; conditions: source organism: Vaccinia virus WR
HLA-A*11:01 = assay: as above; conditions: source organism: Vaccinia virus WR
HLA-A*33:01 = assay: as above; conditions: source organism: Vaccinia virus WR
[3] = source organism: Vaccinia virus WR
[4] = source organism: Lymphocytic choriomeningitis virus (strain Armstrong)
[5] = source organism: Dengue virus 4 Philippines/H241/1956
[6] = source organism: Dengue virus 2 Jamaica/1409/1983
[7] = source organism: Dengue virus 3 Martinique/1243/1999
[8] = source organism: SARS coronavirus Tor2
[9] = source organism: Mammarenavirus brazilense
[10] = source organism: Lymphocytic choriomeningitis virus (strain WE)
[11] = source organism: Dengue virus 1 Brazil/97-11/1997
[12] = source organism: Mammarenavirus whitewaterense

Sequence | Kd (HLA-A*02:06; [3]) | Kd (HLA-A*02:03; [3]) | Kd (HLA-A*02:02; [3]) | other results
IVSLCPTKKL | ≥ 28400 nM | 29.5 nM | 9.46 nM | 
KVAAEGINY |  |  |  | Kd (HLA-A*30:02; source organism: Dengue virus 2 Peru/IQT2913/1996): 110 nM
SNSEDLLKAV |  |  |  | Kd (HLA-A*02:06; [4]): ≥ 10000 nM; Kd (HLA-A*02:03; [4]): 15200 nM; Kd (HLA-A*02:02; [4]): 17700 nM
GTKGKLYIAL | ≥ 37200 nM | 7840 nM | 9070 nM | 
KIVQLPKRGV | 2250 nM | 51.4 nM | 4120 nM | 
RQLTSNVDV | 170 nM | 9760 nM | ≥ 50800 nM | 
EKLRIKGMSY |  |  |  | Kd (HLA-A*26:01; [5]): 4650 nM
KLVETGFVI | 200 nM | 1070 nM | 13200 nM | 
IADIRDKYM | ≥ 58100 nM | 230 nM | 63.5 nM | 
TLNRCALLR |  |  |  | Kd (HLA-A*03:01 [1]; source organism: Vibrio cholerae): 2230 nM
DLLFNEKLKV | 2020 nM | 317 nM | 357 nM | 
GQIDNFSLGV |  |  |  | Kd (HLA-A*02:06; [6]): 5.63 nM
VMDKNHAIFT | ≥ 69800 nM | 11500 nM | 18700 nM | 
FIVYGRSNA | 8750 nM | 370 nM | 6090 nM | 
NMLDDFSAGA | 242 nM | 161 nM | 308 nM | 
FLPQIGGEAI | 10.1 nM | 13.5 nM | 0.998 nM | 
GLMILLTGGA |  |  |  | Kd (HLA-A*02:03; [7]): 23.1 nM
TIAGGVCYYL | 4.01 nM | 34.3 nM | 0.036 nM | 
VLQQNNSFII | 9650 nM | 1030 nM | 665 nM | 
GIKNLKSLL | ≥ 61200 nM | 2620 nM | 2140 nM | 
GLIVILFIM | 5290 nM | 1390 nM | 13400 nM | 
GAAITLVVI | 2950 nM | 3280 nM | 6450 nM | 
SIAMLKSKNI | 259 nM | 55 nM | 1090 nM | 
IISLFYTFAI | 146 nM | 43.7 nM | 108 nM | 
DVSVSVGTGI | ≥ 22100 nM | 5830 nM | 17900 nM | 

Sequence | Kd (HLA-A*02:06; [3]) | Kd (HLA-A*02:03; [3]) | Kd (HLA-A*02:02; [3]) | other results
LLWYRRGTF |  |  |  | Kd (HLA-B*15:01; source organism: Mycobacterium tuberculosis C): 360 nM
PTNDIPSLFI | 14800 nM | ≥ 61800 nM | 11000 nM | 
YVSSSYKDI | 16600 nM | 1200 nM | 5040 nM | 
ALYSPPLISI | 162 nM | 150 nM | 1.42 nM | 
KVASEGIKY |  |  |  | Kd (HLA-A*30:02; [7]): 1740 nM
CTEETKRNIA | ≥ 69800 nM | ≥ 50100 nM | ≥ 70000 nM | 
WLKDSAIMVA | 4840 nM | 1320 nM | 14.8 nM | 
TIAVSVYGAI | 5390 nM | 582 nM | 1550 nM | 
TTIAVSMAN |  |  |  | Kd (HLA-A*26:01; [6]): 5160 nM
GGTPAVEEW |  |  |  | Kd (HLA-B*58:01; source organism: Mycobacterium tuberculosis): 202 nM
ATQFNFNGHT | ≥ 26500 nM | 11500 nM | ≥ 28600 nM | 
IMETIDPVYI | 349 nM | 239 nM | 28.6 nM | 
YLDFGGPEG |  |  |  | Kd (HLA-A*02:01; source organism: Homo sapiens): 1500 nM; Kd (HLA-A*01:01): 2460 nM
ILDGENCTL |  |  |  | Kd (HLA-A*02:01; source organism: Influenza A virus (A/Jiangsu/38/2004(H3N2))): 37.8 nM
CVDHPFIYV | 148 nM | 1410 nM | 300 nM | 
ENPYRTWAY |  |  |  | Kd (HLA-A*26:01; [5]): 4380 nM
DLLNVTYNI | 1280 nM | 194 nM | 297 nM | 
KVEKYLPEV | 116 nM | 171 nM | 1050 nM | 
TLILAGVSLL |  |  |  | Kd (HLA-A*26:01; [7]): 6690 nM
RTIDAINKCV | 341 nM | 334 nM | 10800 nM | 
GLSASDVDM | 13800 nM | 3540 nM | 497 nM | 
RMIAISAKV |  |  |  | Kd (HLA-A*02:01; source organism: Camelpox virus M-96): 3.4 nM
LLQAGASVK |  |  |  | Kd (HLA-A*03:01 [1]; source organism: Vibrio parahaemolyticus RIMD 2210633): 79 nM
KLLIVLTCI |  |  |  | Kd (HLA-A*02:06; [8]): 449 nM; Kd (HLA-A*02:03; [8]): 1940 nM; Kd (HLA-A*02:02; [8]): 260 nM
LVAEHRFENM | 723 nM | 462 nM | 2050 nM | 

Sequence | Kd (HLA-A*02:06; [3]) | Kd (HLA-A*02:03; [3]) | Kd (HLA-A*02:02; [3]) | other results
LNISGYNYSL |  |  |  | Kd (HLA-A*02:06; [9]): 1090 nM; Kd (HLA-A*02:03; [9]): ≥ 49000 nM; Kd (HLA-A*02:02; [9]): 77.1 nM
MIIGEPIIVA | 124 nM | 111 nM | 42 nM | 
YAVLSEYET | 1330 nM | ≥ 35100 nM | 1780 nM | 
ILAVVSVSPL |  |  |  | Kd (HLA-A*02:03; source organism: Dengue virus 2 16681-PDK53): 39.5 nM
PVLEKKVCAI | 1050 nM | 1190 nM | 541 nM | 
ITLILSNKLL | 3890 nM | 4690 nM | 1090 nM | 
VVISVIFYFI | 542 nM | 755 nM | 239 nM | 
CQCTVQEFI | 1130 nM | 4790 nM | 2050 nM | 
SLIYYQNEVT | 4310 nM | 606 nM | 77.2 nM | 
AIDRQVSVKL | ≥ 32000 nM | 13100 nM | 7900 nM | 
RVAAEGINY |  |  |  | Kd (HLA-A*30:02; [6]): 48.4 nM
GARVIWMDA | 2140 nM | 9140 nM | 4600 nM | 
TILATLNTL | 25.6 nM | 33.8 nM | 238 nM | 
KVSCTILAAV |  |  |  | Kd (HLA-A*02:06; [6]): 12.7 nM; Kd (HLA-A*02:03; [6]): 54.4 nM
TTTYKAFDW |  |  |  | Kd (HLA-B*58:01; source organism: Mycobacterium tuberculosis variant bovis): 71.3 nM
EYHLLYQKT |  |  |  | Kd (HLA-A*26:01; [4]): ≥ 77900 nM; Kd (HLA-A*30:02; [4]): ≥ 35000 nM
GTKGKLYIA | 2530 nM | 55.9 nM | 1720 nM | 
RTMPNESRV | 155 nM | 100 nM | 140 nM | 
FSTSAYLISI |  |  |  | Kd (HLA-A*02:06; [10]): 3.48 nM; Kd (HLA-A*02:03; [10]): 13.5 nM; Kd (HLA-A*02:02; [10]): 0.675 nM
MQLKIDKLT | ≥ 59600 nM | ≥ 60100 nM | 7670 nM | 
ALLFLMSFT |  |  |  | Kd (HLA-A*02:06; [8]): 128 nM; Kd (HLA-A*02:03; [8]): 1990 nM; Kd (HLA-A*02:02; [8]): 2830 nM
LVFLWLLWPV |  |  |  | Kd (HLA-A*02:06; [8]): 0.564 nM; Kd (HLA-A*02:03; [8]): 1.93 nM; Kd (HLA-A*02:02; [8]): 0.926 nM
ICFWSTLFFT |  |  |  | Kd (HLA-A*02:06; [9]): ≥ 34900 nM; Kd (HLA-A*02:03; [9]): ≥ 35100 nM; Kd (HLA-A*02:02; [9]): ≥ 33200 nM
IAIFNNRNL | 13400 nM | 10500 nM | 9230 nM | 
FQPHQLWTT |  |  |  | Kd (HLA-A*02:06; [11]): 6.01 nM

Sequence | Kd (HLA-A*02:06; [3]) | Kd (HLA-A*02:03; [3]) | Kd (HLA-A*02:02; [3]) | other results
GVPLLALGCY |  |  |  | Kd (HLA-A*30:02; [11]): 37.6 nM
ALLSCIRNA | 77.4 nM | 6.22 nM | 120 nM | 
SMTCIAVGMV |  |  |  | Kd (HLA-A*02:03; [11]): 21.5 nM
ETAECPNTNR |  |  |  | Kd (HLA-A*68:01; [6]): 13.9 nM; Kd (HLA-A*26:01; [6]): 10500 nM
RILSEKRKDT | 6860 nM | 4160 nM | 711 nM | 
GVKGFSFKY |  |  |  | Kd (HLA-B*15:01; source organism: Influenza A virus (A/eka/Thailand/EkA1NRC/2004(H5N1))): ≥ 20000 nM
ALGMMVLKIV |  |  |  | Kd (HLA-A*02:03; [6]): 55.9 nM
VVIVENDNV | 4300 nM | ≥ 38000 nM | 13200 nM | 
ILATLNTLI | 40.5 nM | 0.231 nM | 0.413 nM | 
DVERLQMAGV | 776 nM | 104 nM | 215 nM | 
TLIAMDLGEL |  |  |  | Kd (HLA-A*02:03; [11]): 12.6 nM
STIPETILEL |  |  |  | Kd (HLA-A*26:01; [6]): 831 nM; Kd (HLA-A*02:06; [6]): 79.6 nM
GLVDVCFWS |  |  |  | Kd (HLA-A*02:06; [12]): 533 nM; Kd (HLA-A*02:03; [12]): 1070 nM; Kd (HLA-A*02:02; [12]): 116 nM
KVYLSTFNM | 265 nM | 786 nM | 482 nM | 
KVIKLVKSL | 260 nM | 42.5 nM | 578 nM | 
PLSINVSGV | 17900 nM | 45.3 nM | 1120 nM | 
EMKYALINL | ≥ 77100 nM | 63.5 nM | 3060 nM | 
KLKSMEAEMI |  |  |  | Kd (HLA-A*02:06; source organism: Homo sapiens): 7830 nM
IWYMWLGARY |  |  |  | Kd (HLA-A*30:02; [7]): 3.2 nM
DIEIGNFYIR |  |  |  | Kd (HLA-A*68:01; [3]): 49 nM; Kd (HLA-A*03:01 [2]): 845 nM; Kd (HLA-A*31:01): 822 nM; Kd (HLA-A*11:01): 10400 nM; Kd (HLA-A*33:01): 129 nM
WLLWPVTLA |  |  |  | Kd (HLA-A*02:06; [8]): 17.4 nM; Kd (HLA-A*02:03; [8]): 1.2 nM; Kd (HLA-A*02:02; [8]): 11.8 nM
SSMTIREFPR |  |  |  | Kd (HLA-A*68:01; [3]): 0.479 nM; Kd (HLA-A*03:01 [2]): 9970 nM; Kd (HLA-A*31:01): 0.996 nM; Kd (HLA-A*11:01): 5.47 nM; Kd (HLA-A*33:01): 17.3 nM
